Assay [1] has as its target His-SND1 (16-339), SN1/2 domains, wild type (human) (UniProt Q7KZF4). Briefly: GST titration pull-down: GST-MTDH (386-407) on glutathione resin, SND1 (SN1/2) at 10, 3, 1, 0.5, 0.25, 0.12 (the sheet prints mM, paragraph 254 says µM), SDS-PAGE, Coomassie blue.
In assay [2] the target is TC-FLASH-SND1 (tetracysteine peptide fused to SND1 (16-339), labelled with FlAsH) (human) (UniProt Q7KZF4). The assay can be described thus: FRET, 0.2 µM CFP-MTDH titrated with TC-FLASH-SND1 (0.25-8 µM).
Assay [3] addresses T1, HA-SND1, full-length human, wild type (human, UniProt Q7KZF4 1-910).
T1 construct: Full-length, HA-tagged; Expressed in HEK293T cells, tested in lysate; also called HA-tagged SND1; WT HA-SND1
T1 sequence: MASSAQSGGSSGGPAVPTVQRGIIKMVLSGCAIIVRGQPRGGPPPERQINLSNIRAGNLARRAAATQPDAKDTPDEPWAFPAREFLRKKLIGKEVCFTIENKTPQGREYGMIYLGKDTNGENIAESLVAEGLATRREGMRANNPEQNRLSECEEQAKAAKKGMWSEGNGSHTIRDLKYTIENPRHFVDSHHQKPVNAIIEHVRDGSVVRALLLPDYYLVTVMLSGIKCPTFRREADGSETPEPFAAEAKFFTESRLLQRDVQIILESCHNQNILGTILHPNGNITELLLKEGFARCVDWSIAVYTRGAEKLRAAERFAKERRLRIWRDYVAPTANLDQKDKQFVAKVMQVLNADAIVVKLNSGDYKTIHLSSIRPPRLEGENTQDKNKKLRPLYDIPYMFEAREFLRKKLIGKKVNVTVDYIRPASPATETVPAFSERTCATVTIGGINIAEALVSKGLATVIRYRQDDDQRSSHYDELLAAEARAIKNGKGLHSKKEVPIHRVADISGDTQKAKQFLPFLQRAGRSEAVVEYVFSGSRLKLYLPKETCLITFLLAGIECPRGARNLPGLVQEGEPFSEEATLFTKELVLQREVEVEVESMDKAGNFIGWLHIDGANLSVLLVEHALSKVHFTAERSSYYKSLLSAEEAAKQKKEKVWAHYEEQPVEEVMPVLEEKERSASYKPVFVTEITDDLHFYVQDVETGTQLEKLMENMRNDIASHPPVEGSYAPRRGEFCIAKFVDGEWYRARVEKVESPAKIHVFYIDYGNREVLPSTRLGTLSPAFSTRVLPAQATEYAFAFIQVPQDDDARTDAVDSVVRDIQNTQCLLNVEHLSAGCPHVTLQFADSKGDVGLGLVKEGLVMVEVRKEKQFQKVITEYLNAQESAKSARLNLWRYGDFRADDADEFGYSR
Briefly: anti-HA co-IP (as printed on the sheet) from HEK293T lysate, western blot. From the text: The proteins bound to GS4B were examined on SDS-PAGE and visualized by Coomassie blue staining. […] The bound proteins were examined as in (FIG. 22A). For both (FIG. 22A) and (FIG. 22B), experiments were repeated three times; representative results are shown. The normalized percentage of binding was averaged from three experiments; mean±SEM was shown below the data. (FIG. 22C) HEK293T cells were transfected with human HA-SND1, WT Myc-MTDH or Myc-MTDH with indicated single point mutation. […] (FIG. 22D) HEK293T cells were transfected with human Myc-MTDH, WT HA-SND1 or mutant HA-SND1 with indicated single point mutations or deletions. […]
Immunoprecipitation and western blot: For in vivo immunoprecipitation (IP) experiments, cultured cells were washed in cold PBS and lysed in lysis buffer (20 mM Tris pH 7.4, 0.15 M NaCl, 1 mM EDTA, 1 mM EGTA, 1% Tx-100, 0.0025 M Na2P2O7, 1 mM β-glycerolphosphate, 1 mM Na3VO4, and 1 mM NaF) with an EDTA-free protease inhibitor mixture (Roche Applied Science) and PMSF. Cell lysates were then incubated on ice for 10 min, centrifuged, and precleared by incubating with protein A/G beads (Santa Cruz Biotechnology) for 1 h at 4° C. For IP bead preparation, 30 μl of protein A/G beads were incubated with 5 μg of antibodies for 2 h at 4° C. […]
(In western blotting, separated proteins are transferred to a membrane and probed.)

Assay [4] concerns the target human AGO2 (ectopically expressed in HEK293T cells) (human, UniProt Q9UKV8 1-859). Briefly: co-IP (anti-Myc) from HEK293T lysates, western blot.
Assay [5] deals with T1, HA-SND1, full-length human, wild type. Described as above.
For assay [6] the target is unchanged. The assay can be described thus: competition in co-IP from 293T cells with HA-SND1 and MYC-MTDH (m36 is the competitor); peptide at 50 uM; the sheet prints IP: MYC, the legend says anti-HA [26B, 26C, 26D]. The method, then: 293 T cells were co-transfected with HA-SND1 and MYC-MTDH. After 48 hours, the cells were collected and subject to immunoprecipitation assay. Cell lysate was incubated with anti-HA antibody or IgG overnight followed by a two hour incubation with Protein A/G beads to pull down HA-SND1 protein. The beads were washed with lysis buffer and split into five fractions.
The elution fractions and beads were collected for western blot. (FIGS. 26C and 26D) Cell lyaste was split into 6 fractions. One of the fractions was incubated with IgG and the rest were incubated with anti-HA antibody plus either buffer or indicated peptides. After 24 hours, the lysate was incubated with Protein A/G beads then the beads was washed followed by wash buffer. 50 uM of peptides was used in all the assays.

In assay [7] the target is T2, endogenous human SND1 (human breast cancer cells, MDA-MB-231) (human, UniProt Q7KZF4 2-910).
T2 construct: Endogenous protein in cell lysate; also called endogenous SND1 protein
T2 sequence: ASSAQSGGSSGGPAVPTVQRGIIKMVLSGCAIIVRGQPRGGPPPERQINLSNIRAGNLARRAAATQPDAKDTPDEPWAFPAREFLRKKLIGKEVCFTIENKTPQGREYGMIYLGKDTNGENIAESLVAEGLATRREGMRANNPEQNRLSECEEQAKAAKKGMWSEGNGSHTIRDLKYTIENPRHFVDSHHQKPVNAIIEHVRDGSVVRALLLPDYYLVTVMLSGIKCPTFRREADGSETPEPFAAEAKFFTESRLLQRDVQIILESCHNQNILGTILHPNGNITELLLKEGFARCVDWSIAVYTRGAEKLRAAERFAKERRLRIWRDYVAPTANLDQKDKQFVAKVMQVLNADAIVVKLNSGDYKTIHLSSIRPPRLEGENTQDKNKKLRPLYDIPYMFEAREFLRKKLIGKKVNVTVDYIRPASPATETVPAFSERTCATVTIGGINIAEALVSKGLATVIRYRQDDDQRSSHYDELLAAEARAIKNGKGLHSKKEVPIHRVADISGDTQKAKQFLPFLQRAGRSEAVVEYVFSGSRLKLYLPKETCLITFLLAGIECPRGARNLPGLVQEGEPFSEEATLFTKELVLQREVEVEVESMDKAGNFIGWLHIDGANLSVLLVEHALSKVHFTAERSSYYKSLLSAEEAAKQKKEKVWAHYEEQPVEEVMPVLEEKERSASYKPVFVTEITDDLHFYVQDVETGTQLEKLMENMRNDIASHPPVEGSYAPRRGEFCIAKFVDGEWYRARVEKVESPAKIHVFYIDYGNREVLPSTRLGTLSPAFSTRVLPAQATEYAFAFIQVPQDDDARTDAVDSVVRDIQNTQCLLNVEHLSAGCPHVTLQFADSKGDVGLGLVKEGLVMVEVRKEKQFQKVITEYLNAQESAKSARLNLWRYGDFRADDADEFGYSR
Briefly: competition in endogenous co-IP from MDA-MB-231 lysate (endogenous MTDH, m58, is the competitor); peptide at 50 uM; the sheet prints IP: MTDH, the legend says anti-SND1 [27B]. Here is the method:
Breast cancer cells MDA-MB231 were collected and subjected to IP assay. (FIG. 27A) Cell lysate was incubated with anti-SND1 antibody or IgG overnight followed by 2 hr incubation with Protein A/G beads to pull down endogenous SND1 protein. The beads were washed with lysis buffer and split into 5 fractions. Each fraction was eluted with buffer or indicated peptides for 30 min. The elution fractions and beads were collected for WB. (FIG. 27B) Cell lyaste was split into 5 fractions, and incubated with anti-SND1 antibody plus either buffer or indicated peptides. After 24 hr, the lysate was incubated with Protein A/G beads then the beads were washed in wash buffer.
The interaction interruption effects was confirmed by endogenous immunoprecipitation (IP) of a breast cancer cell line. Briefly, cell lysates from the breast cancer cell line MDA-MB-231 were collected and subjected to IP assay. FIG. 27A—Cell lysate was incubated with anti-SND1 antibody or IgG overnight followed by 2 hr incubation with Protein A/G beads to pull down endogenous SND1 protein. The beads was washed with lysis buffer and split into 5 fractions. Each fraction was eluted with buffer or indicated peptides for 30 min. The elution fractions and beads were collected for WB. FIG. 27B—Cell lyaste was split into 5 fractions, and incubated with anti-SND1 antibody plus either buffer or indicated peptides. […]

Positions count from the first letter of the chain named. Numbers in names are those of the source. Where no end group is shown, it is not given here. CFP = cyan fluorescent protein

Chain of human AGO2 (ectopically expressed in HEK293T cells) (Q9UKV8 whole entry): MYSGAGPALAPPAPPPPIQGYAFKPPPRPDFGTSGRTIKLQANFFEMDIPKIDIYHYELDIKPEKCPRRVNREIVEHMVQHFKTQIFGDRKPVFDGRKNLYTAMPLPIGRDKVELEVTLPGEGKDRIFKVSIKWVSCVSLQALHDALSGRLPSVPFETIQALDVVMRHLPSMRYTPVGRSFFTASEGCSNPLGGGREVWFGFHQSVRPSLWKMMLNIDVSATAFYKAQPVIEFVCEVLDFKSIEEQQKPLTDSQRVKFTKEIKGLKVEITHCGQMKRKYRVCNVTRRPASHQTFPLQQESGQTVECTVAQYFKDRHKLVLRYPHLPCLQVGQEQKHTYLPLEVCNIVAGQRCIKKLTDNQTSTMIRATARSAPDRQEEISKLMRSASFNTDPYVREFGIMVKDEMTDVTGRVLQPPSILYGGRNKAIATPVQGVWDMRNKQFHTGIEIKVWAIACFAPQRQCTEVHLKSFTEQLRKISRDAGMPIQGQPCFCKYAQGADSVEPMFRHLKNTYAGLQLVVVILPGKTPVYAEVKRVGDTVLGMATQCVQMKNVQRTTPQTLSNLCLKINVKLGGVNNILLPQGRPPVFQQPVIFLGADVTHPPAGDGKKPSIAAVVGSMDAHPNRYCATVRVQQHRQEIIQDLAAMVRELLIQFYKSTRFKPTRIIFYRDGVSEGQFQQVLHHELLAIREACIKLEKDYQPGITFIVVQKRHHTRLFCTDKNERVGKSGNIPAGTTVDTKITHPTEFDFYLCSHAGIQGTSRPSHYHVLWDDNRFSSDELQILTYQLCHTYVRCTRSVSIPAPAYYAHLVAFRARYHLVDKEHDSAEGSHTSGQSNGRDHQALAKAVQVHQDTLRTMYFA

For the molecule PAE (397-399)→SQ, in assay [1], the Estimated Binding Affinity was 0.8 µM.

Regarding {CFP}-SSADPNSDWNAPAEEWGNWVDE (peptide, not shown: large carriers, also: fused to CFP, whose letters are not given here) [CFP-MTDH fusion protein], the Kd in assay [2] came out at 900 nM. That is a sub-micromolar value.

B1: Myc-MTDH E399R, full-length human (other)
chain: MAARSWQDELAQQAEEGSARLREMLSVGLGFLRTELGLDLGLEPKRYPGWVILVGTGALGLLLLFLLGYGWAAACAGSRKKRRSPPRKREEAAAVPAAAPDDLALLKNLRSEEQKKKNRKKLSEKPKPNGRTVEVAEGEAVRTPQSVTAKQPPEIDKKNEKSKKNKKKSKSDAKAVQNSSRHDGKEVDEGAWETKISHREKRQQRKRDKVLTDSGSLDSTIPGIENTITVTTEQLTTASFPVGSKKNKGDSHLNVQVSNFKSGKGDSTLQVSSGLNENLTVNGGGWNEKSVKLSSQISAGEEKWNSVSPASAGKRKAEPSAWSQDTGDANTNGKDWGRSWSDRSIFSGIGSTAEPVSQSTTSDYQWDVSRNQPYIDDEWSGLNGLSSADPNSDWNAPAREWGNWVDEERASLLKSQEPIPDDQKVSDDDKEKGEGALPTGKSKKKKKKKKKQGEDNSTAQDTEELEKEIREDLPVNTSKTRPKQEKAFSLKTISTSDPAEVLVKNSQPIKTLPPATSTEPSVILSKSDSDKSSSQVPPILQETDKSKSNTKQNSVPPSQTKSETSWESPKQIKKKKKARRET
notes: Full-length, Myc-tagged; also called SPM21
Turning to B1, the binding result in assay [3] is “binds”.

B2: Myc-MTDH E400R, full-length human (other)
chain: B1 chain with R399E, E400R
notes: Full-length, Myc-tagged; also called SPM22
As to B2, the binding result in assay [3] is given as “binds”.

B3: Myc-MTDH TPM1 (D389R, D393R, W394D), full-length human (other)
chain: B1 chain with D389R, D393R, W394D, R399E
notes: Full-length, Myc-tagged; also called TPM1 MTDH
With B3, the binding result was “binds” in assay [4] and “no binding” in assay [5].

B4: Myc-MTDH TPM2 (E399R, E400R, W401D), full-length human (other)
chain: B1 chain with E400R, W401D
notes: Full-length, Myc-tagged; also called TPM2 MTDH
In the case of B4, the binding result in assay [4] is listed as “binds”; in assay [5], “no binding”. Regarding PNSDWNAPAEEWGNW (also called wild type MTDH peptide) [Peptide-wt (PNSDWNAPAEEWGNW)], the binding result in assay [6] and in assay [7] was “binds” throughout.

By Kd is commonly meant the concentration at which binding is half-saturated. Read a low Kd as higher affinity.
